Test system: O=NO
Assay: purified protein
Settings: 50 mM potassium phosphate pH 7.0, 4 °C, anaerobic, nitrite up to 50 mM

## AxNiR (AxCuNiR) (Achromobacter xylosoxidans; F330C)
  Km: 1200 ± 100 µM
  kcat: 310 s⁻¹
  kcat/Km: 260000 M⁻¹ s⁻¹
